Target: gp120
Test: ELISA; geometric mean over gp120 from 7 HIV strains

Binder | EC50
PGT121.42 (antibody, V domains shown) VH: QMQLQESGPGLVKPSETLSLTCSVSGASISDSYWSWIRRSPGKGLEWIGYVHKSGDTNYNPSLKSRVHLSLDTSKNQVSLSLSSVTAADSGKYYCARTLHGRRIYGIVAFNEWFTYFYMDVWGKGTQVTVSS VL: SDISVAPGETARISCGEKSLGSRAVQWYQHRAGQAPSLIIYNNQDRPSGIPERFSGSPDSPFGTTATLTITSVEAGDEADYYCHIWDSRVPTKWVFGGGTTLTVLG | 1.57 nM
PGT121.65 (antibody, V domains shown) VH: QLQLQESGPGLVKPSETLSLTCSVSGASISDAYWSWIRRSPGKGLEWIGYVHKSGDTNYNPSLKSRVHLSLDTSKNQVSLSLTGVTAADSGKYYCARALHGRRIYGIVAFNEWFTYFYMDVWGTGTQVTVSS VL: SDISVAPGETARISCGEKSLGSRAVQWYQHRAGQAPSLIIYNNQDRPSGIPERFSGSPDSRPGTTATLTITSVEAGDEADYYCHIWDSRVPTKWVFGGGTKLTVLG | 2.14 nM
PGT121.61 (antibody) heavy: QMQLQESGPGLVKPSETLSLTCSVSGASISDSYWSWIRRSPGKGLEWIGYVHKSGDTNYNPSLKSRVHLSLDTSKNQVSLSLTGVTAADSGKYYCARTLHGRRIYGIVAFNEWFTYFYMDVWGTGTQVTVSSASTKGPSVFPLAPSSKSTSGGTAALGCLVKDYFPEPVTVSWNSGALTSGVHTFPAVLQSSGLYSLSSVVTVPSSSLGTQTYICNVNHKPSNTKVDKKVEPKSCDKTHTCPPCPAPELLAGPDVFLFPPKPKDTLMISRTPEVTCVVVDVSHEDPEVKFNWYVDGVEVHNAKTKPREEQYNSTYRVVSVLTVLHQDWLNGKEYKCKVSNKALPLPEEKTISKAKGQPREPQVYTLPPSREEMTKNQVSLTCLVKGFYPSDIAVEWESNGQPENNYKTTPPVLDSDGSFFLYSKLTVDKSRWQQGNVFSCSVLHEALHSHYTQKSLSLSPGK light: SDISVAPGETARISCGEKSLGSRAVQWYQHRAGQAPSLIIYNNQDRPSGIPERFSGSPDSRPGTTATLTITSVEAGDEADYYCHIWDSRVPTKWVFGGGTKLTVLGQPKAAPSVTLFPPSSEELQANKATLVCLISDFYPGAVTVAWKADSSPVKAGVETTTPSKQSNNKYAASSYLSLTPEQWKSHRSYSCQVTHEGSTVEKTVAPTECS | 1.65 nM
PGT121.60 (antibody) heavy: QMQLQESGPGLVKPSETLSLTCSVSGASISDSYWSWIRRSPGKGLEWIGYVHKSGDTNYNPSLKSRVHLSLDTSKNQVSLSLTGVTAADSGKYYCARTLHGRRIYGIVAFNEWFTYFYMDVWGTGTQVTVSSASTKGPSVFPLAPSSKSTSGGTAALGCLVKDYFPEPVTVSWNSGALTSGVHTFPAVLQSSGLYSLSSVVTVPSSSLGTQTYICNVNHKPSNTKVDKKVEPKSCDKTHTCPPCPAPELLAGPDVFLFPPKPKDTLMISRTPEVTCVVVDVSHEDPEVKFNWYVDGVEVHNAKTKPREEQYNSTYRVVSVLTVLHQDWLNGKEYKCKVSNKALPLPEEKTISKAKGQPREPQVYTLPPSREEMTKNQVSLTCLVKGFYPSDIAVEWESNGQPENNYKTTPPVLDSDGSFFLYSKLTVDKSRWQQGNVFSCSVLHEALHSHYTQKSLSLSPGK light: not shown | 1.79 nM
